# Measurements as given in article PMC8060857.
# Target: HR-C1 peptide (SARS-CoV (Urbani strain)) (UniProt P59594)
# Assay: SDS-PAGE of samples not heated
substance,measurement,value
HR-C1 peptide (from UniProt P59594 1147-1185),stoichiometry N,3
